According to PMC10774421 (Nature Communications, 2024):

Key:
[1] = molecular target: HiSiaQM OFS #2 (Y252C/M297C in HiSiaQM ΔCys) (Haemophilus influenzae) (UniProt P44543); experiment: single-molecule TIRF microscopy
[2] = molecular target: T1, HiSiaP (Haemophilus influenzae, UniProt P44542, S67C/S194C); details: 50 mM Tris pH 8, 50 mM NaCl; average of triplicates; CLOSED #1, no oxidant added
T1 construct: gene siaP

[3] = molecular target: T2, wild-type HiSiaQM (Haemophilus influenzae, UniProt P44543); experiment: single-molecule TIRF microscopy; details: both partners purified
T2 construct: also called wt HiSiaQM; HiSiaQM wt

Molecule: AF647-labeled wild-type HiSiaP (K254C) (from UniProt P44542 24-329) (natural protein)
- change of the rate of interactions (against the wild-type proteins) [1]: -50%

Molecule: CC(=O)N[C@H]1[C@H]([C@H](O)[C@H](O)CO)OC(O)(C(=O)O)C[C@@H]1O (stereo partly drawn) [Neu5Ac]
- Kd [2]: 800 nM

B1: AF555-VHHQM3 (S85C) (VHH)
VHH: QLQLVETGGGLVQPGGSLRLSCTASRVTLDYHDIGWFRQAPGKEREGVSYISSSGGSTNYADSVKGRFTISRDNAKNTVYLQMNCLKPEDTAVYYCARSSAYGSSWLNPSRYDYWGQGTQVTVSS
- binding result [3]: binds
